Source: patent US20130195859

System: plasma derived alpha-1 antitrypsin (AAT)

recombinant active caspase-1
caspase-1 activity (in arbitrary units), colorimetric substrate, in vitro with recombinant active caspase-1: AAT has a direct inhibitory effect on caspase-1 activity in vitro
